Measurements from article doi:10.1101/2020.07.29.226720v1 (biorxiv, 2020).

Key:
AthPEPCK1 Δ101 = biological target: T1, AthPEPCK1 Δ101 (Arabidopsis thaliana, UniProt Q9T074); assay: activity with effector, decarboxylation direction; type: biochemical; details: allosteric activator; 0.5 mM OAA, 0.3 mM ATP
T1 sequence (Q9T074 102-671): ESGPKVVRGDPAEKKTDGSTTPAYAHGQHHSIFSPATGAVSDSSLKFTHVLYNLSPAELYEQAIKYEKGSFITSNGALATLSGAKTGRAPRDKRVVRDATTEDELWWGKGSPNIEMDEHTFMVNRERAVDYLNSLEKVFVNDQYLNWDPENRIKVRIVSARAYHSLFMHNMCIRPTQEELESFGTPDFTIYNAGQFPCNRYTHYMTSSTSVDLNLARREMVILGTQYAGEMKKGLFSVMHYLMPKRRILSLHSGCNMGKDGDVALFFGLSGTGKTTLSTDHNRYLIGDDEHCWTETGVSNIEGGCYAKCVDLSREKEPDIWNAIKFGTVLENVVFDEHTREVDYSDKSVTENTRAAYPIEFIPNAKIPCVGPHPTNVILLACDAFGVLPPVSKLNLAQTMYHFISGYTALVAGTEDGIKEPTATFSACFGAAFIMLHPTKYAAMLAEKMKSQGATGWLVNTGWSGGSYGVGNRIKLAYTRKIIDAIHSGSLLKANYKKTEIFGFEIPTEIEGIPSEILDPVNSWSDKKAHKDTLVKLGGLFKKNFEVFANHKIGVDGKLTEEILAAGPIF

AthPEPCK1 WT = biological target: T2, AthPEPCK1 WT (Arabidopsis thaliana, UniProt Q9T074); assay: activity with effector, carboxylation direction; type: biochemical; details: allosteric activator; 10 mM PEP, 0.13 mM ADP
T2 sequence (Q9T074 2-671): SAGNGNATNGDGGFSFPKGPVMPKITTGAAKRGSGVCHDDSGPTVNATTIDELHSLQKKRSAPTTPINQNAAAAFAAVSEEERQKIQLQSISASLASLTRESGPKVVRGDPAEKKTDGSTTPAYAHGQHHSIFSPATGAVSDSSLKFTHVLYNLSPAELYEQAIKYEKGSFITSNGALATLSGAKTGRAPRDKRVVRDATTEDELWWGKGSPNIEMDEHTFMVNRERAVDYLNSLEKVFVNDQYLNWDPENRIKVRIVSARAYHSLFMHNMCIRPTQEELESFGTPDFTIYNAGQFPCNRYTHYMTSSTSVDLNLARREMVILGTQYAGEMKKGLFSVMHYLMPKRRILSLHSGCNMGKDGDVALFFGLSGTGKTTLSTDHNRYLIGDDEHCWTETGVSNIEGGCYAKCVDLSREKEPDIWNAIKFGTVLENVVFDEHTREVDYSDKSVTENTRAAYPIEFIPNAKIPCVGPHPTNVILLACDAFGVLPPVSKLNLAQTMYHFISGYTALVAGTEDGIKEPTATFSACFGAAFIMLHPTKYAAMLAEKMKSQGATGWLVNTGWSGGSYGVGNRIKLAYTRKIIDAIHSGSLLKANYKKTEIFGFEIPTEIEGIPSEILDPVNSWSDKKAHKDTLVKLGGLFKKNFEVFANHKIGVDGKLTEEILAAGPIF

[1] = substrate: Nc1ncnc2c1ncn2[C@@H]1O[C@H](COP(=O)(O)OP(=O)(O)O)[C@@H](O)[C@H]1O; assay: steady-state kinetics, carboxylation direction; type: biochemical, Arabidopsis thaliana
purified protein = substrate: Nc1ncnc2c1ncn2[C@@H]1O[C@H](COP(=O)(O)OP(=O)(O)OP(=O)(O)O)[C@@H](O)[C@H]1O; assay: purified protein; details: 0.5 mM OAA

O=P(O)(O)OC[C@H]1OC(O)[C@H](O)[C@@H](O)[C@@H]1O (stereo partly shown) [Glc6P]
fold activation (AthPEPCK1 Δ101): 2 fold

O=C(O)C[C@H](O)C(=O)O [malate]
fold activation (AthPEPCK1 WT): 2 fold

B1: AthPEPCK1 Δ101 (Arabidopsis thaliana) (protein)
chain: ESGPKVVRGDPAEKKTDGSTTPAYAHGQHHSIFSPATGAVSDSSLKFTHVLYNLSPAELYEQAIKYEKGSFITSNGALATLSGAKTGRAPRDKRVVRDATTEDELWWGKGSPNIEMDEHTFMVNRERAVDYLNSLEKVFVNDQYLNWDPENRIKVRIVSARAYHSLFMHNMCIRPTQEELESFGTPDFTIYNAGQFPCNRYTHYMTSSTSVDLNLARREMVILGTQYAGEMKKGLFSVMHYLMPKRRILSLHSGCNMGKDGDVALFFGLSGTGKTTLSTDHNRYLIGDDEHCWTETGVSNIEGGCYAKCVDLSREKEPDIWNAIKFGTVLENVVFDEHTREVDYSDKSVTENTRAAYPIEFIPNAKIPCVGPHPTNVILLACDAFGVLPPVSKLNLAQTMYHFISGYTALVAGTEDGIKEPTATFSACFGAAFIMLHPTKYAAMLAEKMKSQGATGWLVNTGWSGGSYGVGNRIKLAYTRKIIDAIHSGSLLKANYKKTEIFGFEIPTEIEGIPSEILDPVNSWSDKKAHKDTLVKLGGLFKKNFEVFANHKIGVDGKLTEEILAAGPIF
Km ([1]; 15 mM PEP): 57 ± 6 µM | kcat ([1]; 15 mM PEP): 3.01 ± 0.08 s⁻¹ | Km (purified protein): 80 ± 10 µM | kcat (purified protein): 3.9 ± 0.2 s⁻¹

B2: AthPEPCK1 Δ19 (Arabidopsis thaliana) (protein)
chain: GPVMPKITTGAAKRGSGVCHDDSGPTVNATTIDELHSLQKKRSAPTTPINQNAAAAFAAVSEEERQKIQLQSISASLASLTRESGPKVVRGDPAEKKTDGSTTPAYAHGQHHSIFSPATGAVSDSSLKFTHVLYNLSPAELYEQAIKYEKGSFITSNGALATLSGAKTGRAPRDKRVVRDATTEDELWWGKGSPNIEMDEHTFMVNRERAVDYLNSLEKVFVNDQYLNWDPENRIKVRIVSARAYHSLFMHNMCIRPTQEELESFGTPDFTIYNAGQFPCNRYTHYMTSSTSVDLNLARREMVILGTQYAGEMKKGLFSVMHYLMPKRRILSLHSGCNMGKDGDVALFFGLSGTGKTTLSTDHNRYLIGDDEHCWTETGVSNIEGGCYAKCVDLSREKEPDIWNAIKFGTVLENVVFDEHTREVDYSDKSVTENTRAAYPIEFIPNAKIPCVGPHPTNVILLACDAFGVLPPVSKLNLAQTMYHFISGYTALVAGTEDGIKEPTATFSACFGAAFIMLHPTKYAAMLAEKMKSQGATGWLVNTGWSGGSYGVGNRIKLAYTRKIIDAIHSGSLLKANYKKTEIFGFEIPTEIEGIPSEILDPVNSWSDKKAHKDTLVKLGGLFKKNFEVFANHKIGVDGKLTEEILAAGPIF
Km ([1]; 5 mM PEP): 40 ± 1 µM | kcat ([1]; 5 mM PEP): 2.64 ± 0.06 s⁻¹ | Km (purified protein): 29 ± 6 µM | kcat (purified protein): 3.38 ± 0.06 s⁻¹
